Among the data in paper PMC6609445 are Kd, percent dimer and stoichiometry N values, retold here.

The assay has as its target purified NTRI ectodomain (FLAG-NTRI, Fc removed) (human) (UniProt Q9P121). As to the kind of experiment: AUC.

In general, Kd refers to the concentration at which binding is half-saturated. Read a low Kd as tighter binding. Usually stoichiometry N stands for the number of molecules, sites or subunits per partner or assembly.

“purified NTRI ectodomain (FLAG-NTRI, Fc removed) (from UniProt Q9P121 34-321) (domain or fragment)” returned a Kd of 110 nM, a percent dimer at 2.0 uM of 50%, a percent dimer at 10 uM of 87% and a stoichiometry N of 2.
